Measured values from article PMC9918544.

Columns and labels:
FSFG_(52×12) Mutant 1 = assay: partitioning into the condensed FG phase (confocal laser scanning microscopy); FG particles of unlabelled FG domain in assay buffer (50 mM Tris/HCl, 5 mM DTT, 150 mM NaCl) mixed with fluorescent probe: 6 μM mCherry, 3 μM EGFP, 1 μM NTR or 1.5 μM NTR pre-incubated with 1 μM cargo; partition coefficient = signal in the centre of the particle / buffer; 21 °C
FSFG_(52×12) Mutant 2 = assay: as above

partition coefficient (FSFG_(52×12) Mutant 1): 2000
partition coefficient (FSFG_(52×12) Mutant 2): 2000
Substance: NTF2 (Nuclear transport factor 2), coupled with Alexa488 (from UniProt P61970 1-127) (natural protein)
